Results as given in patent US11332499B2, “Cyclic peptides and methods of use thereof” (Regents of the University of Minnesota, priority 2018, dated 2022).
Several values for one entry are separate records, joined by “and”; a condition that tells them apart may be missing. Equal values may be shown once. Read-outs that look alike come from different tables or passages of the source. Bridge positions count the residues as written; N and C are the ends. Square brackets hold non-standard residues; d marks the D form. Ends that are not written are not given here.

Legend:
hMC4R-Kir7.1(M125R) [1] = biological target: T1, hMC4R-Kir7.1(M125R) (Homo sapiens, UniProt P32245); details: up to 100 nM; literature; cited from earlier work
T1 construct: expressed in transfected cells; Kir7.1 tetracycline-induced)
T1 sequence (P32245 whole entry, stated change not applied): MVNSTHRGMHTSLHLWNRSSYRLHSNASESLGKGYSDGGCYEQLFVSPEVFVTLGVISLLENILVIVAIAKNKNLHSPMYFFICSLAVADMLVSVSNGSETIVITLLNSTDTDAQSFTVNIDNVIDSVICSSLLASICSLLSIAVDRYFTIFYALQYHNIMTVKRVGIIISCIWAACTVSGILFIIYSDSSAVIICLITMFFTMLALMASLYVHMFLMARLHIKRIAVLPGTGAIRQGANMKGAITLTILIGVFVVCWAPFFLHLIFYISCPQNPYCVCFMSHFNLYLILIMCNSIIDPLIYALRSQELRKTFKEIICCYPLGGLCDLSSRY

rats = details: ICV administration into rats; cited from earlier work
mMC1R [2] = biological target: T2, mMC1R (Mus musculus, UniProt Q01727); details: Table 6; previously described (Wilczynski 2004); read-out: Agonist mMC1R EC50; cited from earlier work
T2 construct: expressed in transfected cells
T2 sequence (Q01727 whole entry): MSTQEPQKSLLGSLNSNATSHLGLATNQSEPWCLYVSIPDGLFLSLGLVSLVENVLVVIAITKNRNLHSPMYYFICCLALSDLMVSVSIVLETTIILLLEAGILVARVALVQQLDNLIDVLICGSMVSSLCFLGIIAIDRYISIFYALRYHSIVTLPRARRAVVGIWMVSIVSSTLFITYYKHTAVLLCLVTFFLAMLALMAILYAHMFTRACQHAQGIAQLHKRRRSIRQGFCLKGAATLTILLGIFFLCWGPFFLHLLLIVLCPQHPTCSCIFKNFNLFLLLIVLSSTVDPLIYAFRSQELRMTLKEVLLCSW

mMC4R [3] = biological target: T3, mMC4R (Mus musculus, UniProt P56450); design: expressed in transfected cells; details: cited from earlier work
T3 sequence (P56450 whole entry): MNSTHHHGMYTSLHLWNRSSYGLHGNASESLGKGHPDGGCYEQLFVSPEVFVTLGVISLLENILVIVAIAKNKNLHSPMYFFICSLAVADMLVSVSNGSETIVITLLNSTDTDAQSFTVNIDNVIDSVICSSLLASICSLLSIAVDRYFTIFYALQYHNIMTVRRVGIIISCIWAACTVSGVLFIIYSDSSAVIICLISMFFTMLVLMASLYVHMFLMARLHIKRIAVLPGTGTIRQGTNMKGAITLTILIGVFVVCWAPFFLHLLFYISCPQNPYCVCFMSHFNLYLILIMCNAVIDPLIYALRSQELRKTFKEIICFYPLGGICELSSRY

mMC5R [4] = biological target: T4, mMC5R (Mus musculus, UniProt P41149); details: Table 6; previously described (Wilczynski 2004); read-out: Inverse Agonist mMC5R EC50; cited from earlier work
T4 construct: expressed in transfected cells
T4 sequence (P41149 whole entry): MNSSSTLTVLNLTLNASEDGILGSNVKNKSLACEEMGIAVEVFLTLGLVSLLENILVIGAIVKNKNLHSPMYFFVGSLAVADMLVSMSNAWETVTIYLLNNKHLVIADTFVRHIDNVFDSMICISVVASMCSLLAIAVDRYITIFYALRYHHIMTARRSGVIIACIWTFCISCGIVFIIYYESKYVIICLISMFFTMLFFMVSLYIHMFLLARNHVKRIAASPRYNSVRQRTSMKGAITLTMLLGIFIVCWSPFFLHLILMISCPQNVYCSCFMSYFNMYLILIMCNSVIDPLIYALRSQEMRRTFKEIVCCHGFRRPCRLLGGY

mMC3R [5] = biological target: T5, mMC3R (Mus musculus, UniProt P33033); details: Table 6, previously described (Wilczynski 2004), cited from earlier work
T5 construct: expressed in transfected cells
T5 sequence (P33033 whole entry): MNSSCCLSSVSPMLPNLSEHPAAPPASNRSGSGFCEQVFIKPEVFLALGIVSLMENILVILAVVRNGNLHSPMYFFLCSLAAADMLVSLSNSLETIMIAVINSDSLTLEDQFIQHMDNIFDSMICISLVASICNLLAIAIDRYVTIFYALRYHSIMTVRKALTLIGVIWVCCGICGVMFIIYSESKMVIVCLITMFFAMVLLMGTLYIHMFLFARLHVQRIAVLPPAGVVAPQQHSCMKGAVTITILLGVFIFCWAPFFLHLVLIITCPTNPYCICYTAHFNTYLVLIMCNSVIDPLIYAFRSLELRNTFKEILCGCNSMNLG

MC4R [6] = biological target: T6, MC4R (Homo sapiens, UniProt P32245); details: previously reported; cited from earlier work
Target sequence in this assay (P32245 whole entry, species assumed): as the sequence (P32245 whole entry, stated change not applied) above

MC1R = MC1R (Mus musculus, UniProt Q01727); details: previously reported, read-out: MC1R agonist potency, cited from earlier work
MC1R, sequence (Q01727 whole entry): as the sequence (Q01727 whole entry) above

mMC1R [7] = biological target: T2, mMC1R; assay: AlphaScreen cAMP assay, agonist activity, HEK293 cells stably expressing mMC1R; format: cell-based; details: Table 2; at 100 μM, relative to NDP-MSH
mMC3R [8] = biological target: T5, mMC3R; assay: AlphaScreen cAMP assay, agonist activity, HEK293 cells stably expressing mMC3R; format: cell-based; details: Table 2; at 100 μM
mMC4R [9] = biological target: T3, mMC4R; details: Example 4; from Ki values
mMC5R [10] = biological target: T4, mMC5R; assay: AlphaScreen cAMP assay, agonist and inverse agonist activity, HEK293 cells stably expressing mMC5R; format: cell-based; details: Table 2; at 100 μM
mMC4R [11] = biological target: T3, mMC4R; assay: AlphaScreen cAMP assay, agonist activity, HEK293 cells stably expressing mMC4R; format: cell-based; design: expressed in transfected cells; details: Table 2; at 100 μM
MC4R [12] = biological target: T6, MC4R; design: expressed in transfected cells; details: inhibition of α-MSH activity; cited from earlier work
Target sequence in this assay (P32245 whole entry): as the sequence (P32245 whole entry, stated change not applied) above

hMC1R = hMC1R (Homo sapiens, UniProt Q01726); details: inhibition of α-MSH activity, cited from earlier work
hMC1R, sequence (Q01726 whole entry): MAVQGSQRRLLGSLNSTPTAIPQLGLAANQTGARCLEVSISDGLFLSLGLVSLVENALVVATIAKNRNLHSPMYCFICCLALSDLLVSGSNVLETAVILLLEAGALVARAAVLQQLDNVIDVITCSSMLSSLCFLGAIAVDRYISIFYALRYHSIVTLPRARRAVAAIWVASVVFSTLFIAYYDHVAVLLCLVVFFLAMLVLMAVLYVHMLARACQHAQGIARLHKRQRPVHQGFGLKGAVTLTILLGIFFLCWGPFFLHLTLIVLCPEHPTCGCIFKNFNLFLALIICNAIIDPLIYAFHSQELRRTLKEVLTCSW

hMC3R = hMC3R (Homo sapiens, UniProt P41968); details: inhibition of α-MSH activity; cited from earlier work
hMC3R, sequence (P41968 whole entry): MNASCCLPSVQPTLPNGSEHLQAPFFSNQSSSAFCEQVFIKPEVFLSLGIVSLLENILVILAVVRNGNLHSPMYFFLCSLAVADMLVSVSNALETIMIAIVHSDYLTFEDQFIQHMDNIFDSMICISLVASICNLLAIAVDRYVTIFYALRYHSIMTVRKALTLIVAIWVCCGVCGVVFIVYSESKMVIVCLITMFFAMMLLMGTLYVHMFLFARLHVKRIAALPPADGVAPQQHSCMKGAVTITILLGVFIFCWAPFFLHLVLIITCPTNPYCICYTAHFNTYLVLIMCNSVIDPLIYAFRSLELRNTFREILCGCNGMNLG

MC3R = MC3R (Mus musculus, UniProt P33033); details: β-galactosidase reporter gene assay; previously reported; cited from earlier work
MC3R, sequence (P33033 whole entry): as the sequence (P33033 whole entry) above

MC4R [13] = biological target: MC4R (Mus musculus, UniProt P56450); details: β-galactosidase reporter gene assay; previously reported; cited from earlier work
MC4R (Mus musculus, UniProt P56450), sequence (P56450 whole entry): as the sequence (P56450 whole entry) above

MC4R [14] = biological target: T6, MC4R; design: expressed in transfected cells; details: Table 10; AGRP(87-132), previously reported by Jackson et al.; read-out: hMC4R 125I-NDP-MSH IC50; cited from earlier work
Target sequence in this assay (P32245 whole entry): as the sequence (P32245 whole entry, stated change not applied) above

hMC4R-Kir7.1(M125R) [15] = biological target: T1, hMC4R-Kir7.1(M125R); assay: Kir7.1 thallium flux assay, HEK293 cells expressing human MC4R and Kir7.1 (M125R); format: cell-based; details: antagonist Ki / Kir7.1 apparent potency
Procedure: In this assay, the Kir7.1 (M125R) variant was used since it previously was reported to result in higher unitary conductance compared to the native channel.^39
The compound with the highest apparent potency.
HEK293 cells stably expressing the human MC4R and Kir7.1 (M125R) were grown in MEM medium with 10% FBS without antibiotics, suspended in medium plus 1 μg ml^−1 tetracycline (to induce expression of the transfected tet-sensitive Kir7.1 gene) and plated (20 μL) in 384-well poly-D-lysine coated optical bottom plates (BD Biosciences) at 20,000 cells per well. Plates were incubated overnight for 16-24 h in the cell incubator at 37° C., 5% CO2. […] Plates were incubated in the dark for 1 h at room temperature and dye solution was removed. Upon addition of 20 μL 1×HBSS buffer, a liquid handler added 20 μL of ligand solution to entire plate simultaneously (ligands were prepared by serial dilution in 1×HBSS, 20 mM HEPES, 0.1% BSA, pH 7.3). Plates were incubated in the dark for 20 min (unless otherwise indicated). After a baseline reading on a Thallos Plate-reader (Vanderbilt, Tenn.), 10 μL of a thallium solution (1×HBSS, 20 mM HEPES, 2 mM Tl, pH 7.3) was loaded and fluorescence generated by thallium influx was recorded for 10 min. The signal was normalized to an untreated control.

MC4R [16] = biological target: T6, MC4R; assay: AlphaScreen cAMP assay, inverse agonist activity at hMC4R; format: cell-based; design: expressed in transfected cells; details: Table 10
Target sequence in this assay (P32245 whole entry): as the sequence (P32245 whole entry, stated change not applied) above
Procedure: The apparent potencies were determined from the inflection point of the normalized sigmoidal dose-response curves.
(§1) Briefly, cells 70-90% confluent were dislodged with Versene (Gibco®) at 37° C. and plated 10,000 cells/well in a 384-well plate (Optiplate™) with 10 μL freshly prepared stimulation buffer (1×HBSS, 5 mM HEPES, 0.5 mM IBMX, 0.1% BSA, pH=7.4) with 0.5 μg anti-cAMP acceptor beads per well.
(§2) Following stimulation, streptavidin donor beads (0.5 μg) and biotinylated-cAMP (0.62 μmol) were added to the wells in a subdued light environment with 10 μL lysis buffer (5 mM HEPES, 0.3% Tween-20, 0.1% BSA, pH=7.4) and the plates were incubated in the dark at room temperature for an additional 2 hr.
(§3) The EC50 values represent the mean of duplicate replicates performed in at least three independent experiments. The EC50 estimates and associated standard errors (SEM) were determined by fitting the data to a nonlinear least-squares analysis using the PRISM program (v4.0, GraphPad Inc.). The ligands were assayed as TFA salts and not corrected for peptide context.

MC4R [17] = biological target: T6, MC4R; assay: Competitive radioligand binding, displacement of 125I-AGRP, HEK293 cells expressing hMC4R; design: expressed in transfected cells; details: displacement of 125I-AGRP
Target sequence in this assay (P32245 whole entry): as the sequence (P32245 whole entry, stated change not applied) above
Procedure: Competitive binding affinity experiments were performed on HEK-293 cells stably expressing the wildtype hMC4R. […] The assay media was carefully aspirated and cells were washed once with assay buffer. Cell were lysed with 500 μL 0.1 M NaOH and 500 μL 1% Triton X-100 for a minimum of 10 min. […] All experiments were performed with duplicate data points and in at least two independent experimental replicates. […] Concentration-response curves and IC50 values were generated and analyzed by the PRISM program (version 4.0. GraphPad Inc.) by a nonlinear regression method. The standard error of the mean (SEM) was derived from the IC50 values from at least two independent experimental replicates.

MC4R [18] = biological target: T6, MC4R; assay: Competitive radioligand binding, displacement of 125I-NDP-MSH, HEK293 cells expressing hMC4R; design: expressed in transfected cells; details: displacement of 125I-NDP-MSH
Target sequence in this assay (P32245 whole entry): as the sequence (P32245 whole entry, stated change not applied) above

free-feeding mice [19] = assay: Mouse feeding study, intrathecal (IT) administration (Example 5); format: in vivo; details: 10 nmol
Procedure: All studies were performed in standard mouse polycarbonate conventional cages provided by the University of Minnesota's Research Animal Resources (RAR), and were changed weekly by laboratory research staff.
All ICV and IT administration experiments utilized a crossover design with free access to standard chow. Mice were housed in RAR supplied conventional mouse cages. Compound MDE3-119-8e was dissolved in a stock solution of 10 nmols/μL in 3% v/v DMSO (Sigma Aldrich)/saline (0.9% sodium chloride, Hospira Inc., Lake Forest, Ill.). Ligands MDE3-119-2c and MDE3-119-10c were dissolved in 20% solutol (Sigma Aldrich). Matching vehicle controls (3% v/v DMSO in saline and 20% solutol) were prepared in parallel. The day of compound administration, an aliquot of stock solution was diluted with saline to the desired experimental dose in 3 μL, in parallel with vehicle control. For ICV administration, the desired experimental dose (3 μL) or vehicle control (3 μL) was delivered 2 h before lights out (t=0 h). […] Food intake and mouse weight was manually measured at t=0, 2, 4, 6, 8, 24, 48, and 72 h post-injection. […]
For feeding experiments with compound MDE3-119-10c, data were analyzed using the PRISM program (v4.0; GraphPad Inc.) by two-way ANOVA with a Sidak's multiple comparison post hoc test.

MC4R [20] = biological target: T6, MC4R; assay: AlphaScreen cAMP assay, antagonist activity (Schild, NDP-MSH) at hMC4R; format: cell-based; design: expressed in transfected cells; details: Example 5
Target sequence in this assay (P32245 whole entry): as the sequence (P32245 whole entry, stated change not applied) above
Procedure: as §1, §2, §3

free-feeding mice [21] = assay: Mouse feeding study, intracerebroventricular (ICV) administration; format: in vivo; details: 10 nmol
Procedure: Cannulation surgeries were performed to place a cannula into the lateral cerebral ventricle as previously reported.^23,67,76 Mice were anesthetized with a mixture of xylazine (5 mg/kg) and ketamine (100 mg/kg) administered intraperitoneal (IP) and placed in a stereotaxic apparatus (David Kopf Instruments) that was used to guide the cannula placement. […] After surgery, flunixin meglumine (FluMegluine, Clipper Distribution Company) and 0.5 mL of 0.9% saline (Hospira, Lake Forrest, Ill.) was administered subcutaneously to aid in recovery. Mice recovered for at least 7 days prior to cannula placement validation. Mice were housed individually after surgery and for the remainder of the experiments.
Cannula placement was validated by the feeding response after ICV administration of 2.5 μg of human (h)PYY3-36 (cat # H8585; Bachem), as described previously.^23,67,75-76 Mice received saline treatment and hPYY treatment on different days separated by a washout period of at least 3 days in a crossover design nocturnal feeding paradigm. In this paradigm, compound or saline is administered 2 h prior to lights out (t=0 h) and body weight and food are measured. Mice have free access to food and water. At 4 h post-administration, food is measured. A mouse with a validated properly placed cannula consumed at least 0.8 g more food after hPYY administration compared to saline administration at 4 h.
All ICV and IT administration experiments utilized a crossover design with free access to standard chow. Mice were housed in RAR supplied conventional mouse cages. […] Matching vehicle controls (3% v/v DMSO in saline and 20% solutol) were prepared in parallel. The day of compound administration, an aliquot of stock solution was diluted with saline to the desired experimental dose in 3 μL, in parallel with vehicle control. For ICV administration, the desired experimental dose (3 μL) or vehicle control (3 μL) was delivered 2 h before lights out (t=0 h). For IT administration, the desired experimental dose (5 μL) or vehicle control (5 μL) was delivered 2 h before lights out (t=0 h). Food intake and mouse weight was manually measured at t=0, 2, 4, 6, 8, 24, 48, and 72 h post-injection. Mice recovered 6-7 days between treatments to reestablish pretreatment body weight and feeding patterns.

mMC1R [22] = biological target: T2, mMC1R; details: displacement of radiolabeled NDP-MSH; read-out: Ki app, mMC1R; cited from earlier work
mMC3R [23] = biological target: T5, mMC3R; details: displacement of radiolabeled NDP-MSH; read-out: Ki app, mMC3R; cited from earlier work
mMC4R [24] = biological target: T3, mMC4R; design: expressed in transfected cells; details: displacement of radiolabeled NDP-MSH; read-out: Ki app, mMC4R; cited from earlier work

Molecule: mini-AGRP: truncated form of AGRP (AGRP87-120, C105A) (CVRLHESCLGQQVPCCDPAATCYCRFFNAFCYCR; ends and bridges not checked; cysteine pairing not given here; UniProt O00253 87-120, looked up, fragment C105A)
- effect on thallium flux (hMC4R-Kir7.1(M125R) [1]): did not affect thallium flux at concentrations up to 100 nM
- increase of 24 h food intake above saline (rats): 21%

Molecule: hAGRP(87-132): truncated human agouti-related protein, previously described in Wilczynski et al. 2004
- EC50 (mMC1R [2]): > 100000 nM
- Antagonist mMC4R pA2 (mMC4R [3]; Table 6, previously described (Wilczynski 2004)): 9.4 ± 1.0
- Ki (mMC4R [3]; Table 6, previously described (Wilczynski 2004), read-out: Antagonist mMC4R Ki): 0.4 nM
- EC50 (mMC5R [4]): > 100000 nM
- increase of 24 h food intake above saline (rats): 42%
- Antagonist mMC3R pA2 (mMC3R [5]): 8.9 ± 0.2
- Ki (mMC3R [5]; read-out: Antagonist mMC3R Ki): 1.3 nM

Molecule: H-DPAATAYCRFFNAFCYARKL-OH (disulfide 8-15) [20 residue peptide]
- MC4R antagonist pA2 (MC4R [6]): 6.9
- EC50 (MC1R): 960 nM

Molecule: 20 (cyclo(PRFFNFF[dP]); SMILES N=C(N)NCCC[C@@H]1NC(=O)[C@@H]2CCCN2C(=O)[C@H]2CCCN2C(=O)[C@H](Cc2ccccc2)NC(=O)[C@H](Cc2ccccc2)NC(=O)[C@H](CC(N)=O)NC(=O)[C@H](Cc2ccccc2)NC(=O)[C@H](Cc2ccccc2)NC1=O) [Peptide 20]
- mMC1R percent maximal stimulatory response (mMC1R [7]): 70% @ 100 μM
- mMC3R percent maximal stimulatory response (mMC3R [8]): 35% @
- fold selectivity for the mMC4R over the mMC3R (mMC4R [9]): 600 fold and 630 fold
- mMC5R percent maximal stimulatory response (mMC5R [10]): 25% @
- mMC4R percent maximal stimulatory response (mMC4R [11]): 35% @

Molecule: ASP-YY: synthesized ASP variant with two residues changed to the homologous AGRP residues (KKVVRPRTPLSAPCVATRNSCKPPAPACCDPCASCYCRFFRSACYCRVLSLNC; UniProt P42127 80-132, looked up, variant Q115Y S124Y)
- functional antagonist potency, hMC4R (MC4R [12]): 0.5 nM
- functional antagonist potency, hMC1R (hMC1R): 3.9 nM
- functional antagonist potency, hMC1R (hMC1R; listed as Agouti-YY): 4.0 nM
- functional antagonist potency, hMC3R (hMC3R): 2.6 nM

Molecule: Tyr-c[Cys-Arg-Phe-Phe-Asn-Ala-Phe-Cys]-Tyr (YCRFFNAFCY; disulfide 2-9) [hAGRP (109-118)]
- MC3R antagonist pA2 (MC3R): No activity
- EC50 (MC1R; listed as H-Tyr-c[Cys-Arg-Phe-Phe-Asn-Ala-Phe-Cys]-Tyr-OH): 2890 nM
- EC50 (MC1R): 3000 nM
- MC4R antagonist pA2 (MC4R [13]): 6.8 ± 0.4

Molecule: hAGRP(86-132): C-terminal domain of agouti-related protein, purchased from Peptides International (RCVRLHESCLGQQVPCCDPCATCYCRFFNAFCYCRKLGTAMNPCSRT) [reference compound]
- IC50 (MC4R [14]): 11 ± 1 nM
- fold selective for cAMP over Kir7.1 signaling (hMC4R-Kir7.1(M125R) [15]): 2 fold
- hMC4R Inverse Agonist, decrease from basal signal (MC4R [16]): (-35%)

Molecule: c[Pro-Arg-Phe-Phe-Val-Ala-Phe-DPro] [Peptide 13 (Example 1)]
- fold decreased binding affinity compared to AGRP (MC4R [17]): 200 fold
- fold selective for Kir7.1 signaling over cAMP antagonism (hMC4R-Kir7.1(M125R) [15]): 4,000 fold
- fold decreased binding affinity compared to NDP-MSH (MC4R [18]): 200 fold
- food intake after IT administration vs vehicle (free-feeding mice [19]): no effect on food intake compared to vehicle
- fold decreased antagonist potency relative to MDE3-119-8c at the hMC4R (MC4R [20]): 310 fold
- fold decreased antagonist potency compared to the Dap substitution at the mMC4R (mMC4R [3]; previous SAR study (ref 52)): 630 fold
- cumulative food intake after ICV administration vs vehicle (free-feeding mice [21]): significant, prolonged decrease in cumulative food intake at 4, 6, 8, 24, 48, and 72 h

B1: mASP: recombinant mouse agouti-signaling protein (protein, UniProt Q03288 23-131, looked up)
Agouti-signaling protein: HLALEETLGDDRSLRSNSSMNSLDFSSVSIVALNKKSKKISRKEAEKRKRSSKKKASMKKVARPPPPSPCVATRDSCKPPAPACCDPCASCQCRFFGSACTCRVLNPNC
- Ki (mMC1R [22]): 2.6 nM
- Ki (mMC3R [23]): 190 nM
- Ki (mMC4R [24]): 54 nM
